Source: publication doi:10.1101/751404, “HOPS recognizes each SNARE, assembling ternary trans-complexes for sudden fusion upon engagement with the 4th SNARE” (bioRxiv, 2019)

Biological target: T1, Qa-SNARE Vam3, full-length, wild-type (S. cerevisiae, UniProt Q12241 1-283)
T1 construct: Vam3, vacuolar Qa-SNARE, S. cerevisiae, full-length wild type with its transmembrane domain (residues 265-283); also called GST-Qa; source: isolated as described (Mima et al., 2008; Schwartz and Merz, 2009; Zucchi and Zick, 2011), reconstituted into proteoliposomes
T1 sequence (looked up): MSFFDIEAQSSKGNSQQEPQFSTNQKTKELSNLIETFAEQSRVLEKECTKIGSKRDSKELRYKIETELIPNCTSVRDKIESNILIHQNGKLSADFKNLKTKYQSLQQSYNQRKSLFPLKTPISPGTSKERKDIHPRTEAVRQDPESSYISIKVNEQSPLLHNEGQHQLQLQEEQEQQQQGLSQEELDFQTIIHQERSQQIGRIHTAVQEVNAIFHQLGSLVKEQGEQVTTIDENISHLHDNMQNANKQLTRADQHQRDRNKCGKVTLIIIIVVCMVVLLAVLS
Test: co-IP; proteoliposomes with Ypt7 and R mixed with proteoliposomes with Ypt7, Qa and Qb, with or without 50 nM HOPS and 4 μM Qc, 33 min; solubilised in modified RIPA buffer with 5 μM GST-R; anti-Qa antibody and protein A magnetic beads, 4°C, 2 h; immunoblot with antibodies to R, Qa and Vps33
Settings: both partners purified

B1: R-SNARE (Nyv1), full-length, wild-type (natural protein, S. cerevisiae, UniProt Q12255 1-253, looked up)
chain: MKRFNVSYVEVIKNGETISSCFQPFQKNENYGTITSANEQITPVIFHNLIMDMVLPKVVPIKGNKVTKMSMNLIDGFDCFYSTDDHDPKTVYVCFTLVDMPKILPIRILSGLQEYESNATNELLSSHVGQILDSFHEELVEYRNQTLNSSGNGQSSNGNGQNTISDIGDATEDQIKDVIQIMNDNIDKFLERQERVSLLVDKTSQLNSSSNKFRRKAVNIKEIMWWQKVKNITLLTFTIILFVSAAFMFFYLW
notes: Nyv1, vacuolar R-SNARE, S. cerevisiae, full-length wild type with its membrane anchor; source: isolated as described (Mima et al., 2008; Schwartz and Merz, 2009; Zucchi and Zick, 2011), buffer exchanged into β-octylglucoside, reconstituted into proteoliposomes
  binding result: binds
